Results on eight substances are retold here after patent US20090191187A1.

This experiment deals with human interleukin-1 receptor on cells (MRC-5 human embryonic lung fibroblasts; human blood cells) (human) (UniProt P14778). The experiment is described as follows: cell-based or functional assay.
Sequence of human interleukin-1 receptor on cells (MRC-5 human embryonic lung fibroblasts; human blood cells) (human) (P14778 18-569): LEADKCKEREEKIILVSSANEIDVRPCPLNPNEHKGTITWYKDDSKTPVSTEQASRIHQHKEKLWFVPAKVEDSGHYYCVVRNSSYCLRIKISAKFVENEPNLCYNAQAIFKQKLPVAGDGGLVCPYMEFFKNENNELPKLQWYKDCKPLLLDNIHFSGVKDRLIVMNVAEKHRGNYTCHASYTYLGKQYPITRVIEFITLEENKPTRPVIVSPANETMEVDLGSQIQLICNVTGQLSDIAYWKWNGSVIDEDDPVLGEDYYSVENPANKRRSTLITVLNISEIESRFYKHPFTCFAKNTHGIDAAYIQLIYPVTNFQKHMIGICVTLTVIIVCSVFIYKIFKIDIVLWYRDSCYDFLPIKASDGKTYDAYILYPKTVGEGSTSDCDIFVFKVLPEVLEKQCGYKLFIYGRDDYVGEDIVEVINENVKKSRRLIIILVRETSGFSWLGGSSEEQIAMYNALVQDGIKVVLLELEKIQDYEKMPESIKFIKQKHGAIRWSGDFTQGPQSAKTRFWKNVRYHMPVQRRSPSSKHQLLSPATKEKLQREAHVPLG
On to “BD Pharmingen Cat.# 551388, clone HIL1R-M1 (antibody)”, for which the IC-50 (MRC-5 bioassay) was more than 100 ng/mL.

For the substance “Antigenix Cat.# MC260020, clone R11 (antibody)”, the IC-50 (MRC-5 bioassay) is more than 100 ng/mL. For “Biotrend Cat.# 0100-0242, clone 49/20 (antibody)” the value was more than 100 ng/mL; for “R&D Systems Cat.# MAB269, clone 35730 (antibody)”, more than 100 ng/mL. For “PBL Biomedical Laboratories Cat.# 21808-1, clone RMH1R-1 (antibody)” the value was 33 ng/mL. For “Antigenix Cat.# MC261020, clone R12 (antibody)” the value was more than 100 ng/mL; for “PBL Biomedical Laboratories Cat.# 21809-1, clone RMH1R-2 (antibody)”, more than 100 ng/mL; for “Cell Sciences Cat.# CM2028, clone RMHL-1 (antibody)”, more than 100 ng/mL.
